{"source": "the supplement of paper PMC10724198", "note": "± gives the standard deviation of the averaged measurements.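 Also: PSI is a weighted mean of sequencing reads over stability bins, variants kept only with over 10 reads, mCherry proximal and sfGFP distal, peptide attached via GGGS linker.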"}
{"system": "Saccharomyces cerevisiae", "test": "protein stability index of tFT-peptide fusion (C-terminal peptide) (PSI (0-1 scale)); higher = more stable (slower turnover)", "settings": "genetic background: wild type; temperature: 30 C"}
{"sequence": "PPWPLVVQPSPP", "protein stability index": "0.703 ± 0.041"}
{"sequence": "GTDVGKVSASQG", "protein stability index": "0.638 ± 0.037"}
{"sequence": "LRSRVGYVMPVR", "protein stability index": "0.5988 ± 0.0057"}
{"sequence": "NGTGGVSSLAFG", "protein stability index": "0.6399 ± 0.0013"}
{"sequence": "FCRVCLAFLSGL", "protein stability index": "0.781 ± 0.22"}
{"sequence": "LVQTREKIELVS", "protein stability index": "0.643 ± 0.027"}
{"sequence": "CVGVEDFFFACF", "protein stability index": "0.703 ± 0.029"}
{"sequence": "LDRDTSCYMLDF", "protein stability index": "0.718 ± 0.03"}
{"sequence": "ITRLSPPSSVRL", "protein stability index": "0.7 ± 0.039"}
{"sequence": "AIKTVINYRDMM", "protein stability index": "0.608 ± 0.0024"}
{"sequence": "SFPPSPLPPPPR", "protein stability index": "0.586 ± 0.018"}
{"sequence": "RPYLSPPPPTSP", "protein stability index": "0.687 ± 0.093"}
{"sequence": "FRDPTVLCCLHI", "protein stability index": "0.515 ± 0.055"}
{"sequence": "ISSNMIVMAICG", "protein stability index": "0.6 ± 0.03"}
{"sequence": "QRRRYKHEIKRM", "protein stability index": "0.648 ± 0.0085"}
{"sequence": "KKSGTRDKNIQH", "protein stability index": "0.676 ± 0.046"}
{"sequence": "HVHSLAFPPPAT", "protein stability index": "0.695 ± 0.068"}
{"sequence": "LPPFPRPPPPSP", "protein stability index": "0.719 ± 0.029"}
{"sequence": "RSLSLAPSFPLP", "protein stability index": "0.697 ± 0.0086"}
{"sequence": "KKKKKKRYRKKI", "protein stability index": "0.605 ± 0.024"}
{"sequence": "LSLLLLPPFPHF", "protein stability index": "0.758 ± 0.026"}
{"sequence": "PTTTRSKDKVQR", "protein stability index": "0.738 ± 0.041"}
{"sequence": "PPRSPPSLPFPP", "protein stability index": "0.634 ± 0.0066"}
{"sequence": "LPIKRLPLPTVP", "protein stability index": "0.682 ± 0.015"}
{"sequence": "FSPYLYNIRTSL", "protein stability index": "0.612 ± 0.024"}
{"sequence": "SSPPHLPRPSSP", "protein stability index": "0.748 ± 0.024"}
{"sequence": "GMRAGLGRWRSM", "protein stability index": "0.737 ± 0.1"}
{"sequence": "EAGAKEWGAKQT", "protein stability index": "0.7006 ± 0.007"}
{"sequence": "ITTLGSVSRDSR", "protein stability index": "0.722 ± 0.062"}
{"sequence": "PPAPGPPHPPAL", "protein stability index": "0.651 ± 0.013"}
{"sequence": "RPRQAAAQGGAR", "protein stability index": "0.694 ± 0.036"}
{"sequence": "LGGVKATGLGQL", "protein stability index": "0.686 ± 0.04"}
{"sequence": "VRGSLGQGNDTA", "protein stability index": "0.706 ± 0.03"}
{"sequence": "GGGVDSGWGKGE", "protein stability index": "0.688 ± 0.024"}
{"sequence": "WRSGRGRCAVSQ", "protein stability index": "0.721 ± 0.045"}
{"sequence": "PLPRPPSPLPAL", "protein stability index": "0.689 ± 0.039"}
{"sequence": "ESFLLSLNLLSY", "protein stability index": "0.6155 ± 0.0037"}
{"sequence": "FALAVPLDPWSS", "protein stability index": "0.737 ± 0.065"}
{"sequence": "TVPGTARGQRPP", "protein stability index": "0.629 ± 0.03"}
{"sequence": "PPSSPPPTIPAH", "protein stability index": "0.642 ± 0.029"}
{"sequence": "AAGLNSWLRERW", "protein stability index": "0.805 ± 0.032"}
{"sequence": "IVGAGVFEERWG", "protein stability index": "0.77 ± 0.023"}
{"sequence": "TYSCLKIVIPRT", "protein stability index": "0.664 ± 0.018"}
{"sequence": "GCSLTFAGLFCI", "protein stability index": "0.629 ± 0.01"}
{"sequence": "LGGGGGLTAAGV", "protein stability index": "0.743 ± 0.016"}
{"sequence": "VVLGLWGLCCGC", "protein stability index": "0.527 ± 0.029"}
{"sequence": "KRTKKKTKDERK", "protein stability index": "0.644 ± 0.044"}
{"sequence": "GFNRRVWRGLGV", "protein stability index": "0.721 ± 0.053"}
{"sequence": "LVSLGLHAGKRI", "protein stability index": "0.70514 ± 0.0004"}
{"sequence": "MGGVEMSNRIWE", "protein stability index": "0.663 ± 0.009"}
{"sequence": "GSLVSKLGLGSG", "protein stability index": "0.69 ± 0.011"}
{"sequence": "VIQCIGANGAII", "protein stability index": "0.645 ± 0.052"}
{"sequence": "DPCDVVQHPSAQ", "protein stability index": "0.657 ± 0.11"}
{"sequence": "SSPLSSRFLLCL", "protein stability index": "0.579 ± 0.027"}
{"sequence": "FCGLVIRFSEKV", "protein stability index": "0.653 ± 0.017"}
{"sequence": "DTSNRRFAYRRS", "protein stability index": "0.533 ± 0.12"}
{"sequence": "GRSITTSCTTER", "protein stability index": "0.673 ± 0.036"}
{"sequence": "HFPLSLSPPPPP", "protein stability index": "0.721 ± 0.032"}
{"sequence": "LAYCGSTYVSRH", "protein stability index": "0.699 ± 0.022"}
{"sequence": "RPPLSPLLYPPP", "protein stability index": "0.7115 ± 0.0022"}
{"sequence": "AFCLLSSLASGF", "protein stability index": "0.759 ± 0.067"}
{"sequence": "SPTRPPSPIISR", "protein stability index": "0.7181 ± 0.002"}
{"sequence": "GRLHHYGRCAQG", "protein stability index": "0.664 ± 0.02"}
{"sequence": "APPPVFLPPPPP", "protein stability index": "0.778 ± 0.039"}
{"sequence": "PPSRPLSVLPPP", "protein stability index": "0.6863 ± 0.0055"}
{"sequence": "FPSSRGLGGTMG", "protein stability index": "0.658 ± 0.017"}
{"sequence": "RSSARPQNRPLP", "protein stability index": "0.733 ± 0.035"}
{"sequence": "LKKIEPRKNDKI", "protein stability index": "0.719 ± 0.025"}
{"sequence": "SVLVQLLATTKS", "protein stability index": "0.675 ± 0.028"}
{"sequence": "PGPNPASCIPTW", "protein stability index": "0.6835 ± 0.0021"}
{"sequence": "IDCCAGDSMAGI", "protein stability index": "0.703 ± 0.072"}
{"sequence": "SHLGTITPSSLL", "protein stability index": "0.662 ± 0.082"}
{"sequence": "LPLHHYAHKFDL", "protein stability index": "0.746 ± 0.1"}
{"sequence": "AVRDGSGCQCVG", "protein stability index": "0.6797 ± 0.0012"}
{"sequence": "RGVGWGGLEGIG", "protein stability index": "0.5235 ± 0.0014"}
{"sequence": "ALRSGGAARVRL", "protein stability index": "0.7776 ± 0.0071"}
{"sequence": "SKNQEDEYTIHE", "protein stability index": "0.7 ± 0.024"}
{"sequence": "WLFLCWCFFCCL", "protein stability index": "0.597 ± 0.12"}
{"sequence": "LTNLGSDRCRLQ", "protein stability index": "0.623 ± 0.0074"}
{"sequence": "SIIATHNNNSIW", "protein stability index": "0.694 ± 0.014"}
{"sequence": "GADSWFGVVDVC", "protein stability index": "0.75 ± 0.1"}
{"sequence": "HCYKRGSCTSLI", "protein stability index": "0.631 ± 0.087"}
{"sequence": "FPRSMPSPPSSE", "protein stability index": "0.623 ± 0.035"}
{"sequence": "RFKLEKIKHKKK", "protein stability index": "0.755 ± 0.054"}
{"sequence": "RPYGKQTERYVK", "protein stability index": "0.672 ± 0.029"}
{"sequence": "RPVSQRRRKHIG", "protein stability index": "0.645 ± 0.064"}
{"sequence": "PPPPPPLPLPLS", "protein stability index": "0.711 ± 0.084"}
{"sequence": "HVPFPPTVLNSP", "protein stability index": "0.667 ± 0.088"}
{"sequence": "PPPPPRPPYPIP", "protein stability index": "0.735 ± 0.011"}
{"sequence": "LANGACLLRLNF", "protein stability index": "0.54 ± 0.017"}
{"sequence": "VQSSLSDFYVSS", "protein stability index": "0.707 ± 0.061"}
{"sequence": "IGRSPRVLSATP", "protein stability index": "0.6534 ± 0.0059"}
{"sequence": "PSALGYFRWAVG", "protein stability index": "0.68 ± 0.042"}
{"sequence": "SCLCIHEIFLRL", "protein stability index": "0.672 ± 0.016"}
{"sequence": "PLKPPTPDPPHR", "protein stability index": "0.666 ± 0.027"}
{"sequence": "FVWSGVGCWSEA", "protein stability index": "0.701 ± 0.0076"}
{"sequence": "EFLGRVPNTQDG", "protein stability index": "0.668 ± 0.078"}
{"sequence": "FCRYSRAWKDFV", "protein stability index": "0.737 ± 0.087"}
{"sequence": "WGAAGRAGTERH", "protein stability index": "0.682 ± 0.029"}
{"sequence": "REAPPYQSHVAS", "protein stability index": "0.676 ± 0.065"}
{"sequence": "WPHAPSLPRFSG", "protein stability index": "0.69 ± 0.018"}
